Experimental data from patent publication US20210009686A1 (BEIJING XUANYI PHARMASCIENCES, published 2021).
Changes are numbered by the printed parent chain.

B1: hybridoma clone 5-K4-B (antibody, V domains shown)
VH: EVQLQQSGPELVKPGASVKMSCKASGYTFISYLIHWVKQKPGQGLEWIGYINPYNDGTKYNEKFKGKATLTSDKSSSTASMEFSSLTSEDSAVYYCTRGDFWGQGTTLTVSS
VL: DIVMTQSPSSLTVTAGEKVTMSCKSSQSLLNSGNQKNYLTWYQQKPGQPPKLLIYWASIRASGVPDRFTGSGSGTDFTLTISSVQAEDLALYYCLNDYSFPLTFGAGTKLELK
notes: also called 5K41B
B2: hybridoma clone 7-G17-A (antibody, V domains shown)
VH: EVQLVESGGGLVKPGGSRKLSCAVSGFTFSDYGMYWVRQAPEKGLEWVAYISSGSSTIYYADTVKGRFTMSRDNAKNTLFLQMTSLRSEDTAMYYCARIARGNAMDYWGQGTSVTVSS
VL: B1 VL with A15P, L30F, K36R, T40A, I59T, A61E, L91V, L95Q, S99F, F100Y
B3: hybridoma clone 6-M11-A (antibody, V domains shown)
VH: EVQLVESGGGSVKPGGSRKLSCAASGFTFSDYGMHWVRQAPEKGLEWVAYISSGSNTFYYTDTVKGRFTISRDNAKNTLFLQMTGLRSEDTAMYYCARFTRGNALDYWGQGTSVTVSS
VL: B1 VL with I54L, I59T, A61E, A90T, L91V, L95Q, D97A, F100Y
B4: hybridoma clone 2-F13-A (antibody, V domains shown)
VH: B1 VH with I30T, S31N, L33V, I34M, Y54F, N55D, S80Y, F83L, F101Y
VL: B1 VL with S22T, I59T, A61D, T69R, L91V
B5: hybridoma clone 10-P2-A (antibody, V domains shown)
VH: EVQLQQSGPALVKPGASVKMSCKASGYSFTGYNIHWVKQSHGKSLEWIGYIDPNNGVTYSNQKFKGKATLTVDKSSSTAYMQLNSLTSEDSAVYYCARPYYGNSFDYWGQGTTLTVSS
VL: DIVMTQSPSSLTVTAGEKVTMSCKSSQSLLNSGNLRNYLTWYQQKPGQPPKLLIYWASTRESGVPDRFTGSGSGTDFTLTINSVQAEDLALYFCQDGYFYPFPFGSGTKLVIK
B6: hybridoma clone 10-P12-A (antibody, V domains shown)
VH: EIQLQQSGAELVKPGTSVKISCKASGYSFTGYNMNWVKQSHGKSLEWIGNINPYYSNTNYNQRFKGKATLTVDKSSSTAYMQLNSLTSEDSAVYYCARHVRGNSFDYWGQGTTLTVSS
VL: DIVMTQSPSSLTVTAGERVTVGCKSRQSLFNSENQKNYLSWYQQKPGQPPKLLLYWTSTRESGVPERFTGSGSGTDFTLTISSVQAEDLAVYYCQNNYIYPFTFGSGTKLEIK
B7: hybridoma clone 10-J10-B (antibody, V domains shown)
VH: QVQLQQSGAELARPGASVKLSCKASGYTFTSWSISWVKQRTGQGLEWIGEIYPRSDNIHYNEKFKGKATLTADKSSSTVYMQLSSLTSEDSAVYFCARAYYGNSFAYWGQGTLVTVSA
VL: DIVMTQSPSSLTVTAGEKVTMTCKSSQILLNSGNQKNYLTWYQQKPGQPPKLLIYWASTRESGVPDRFTGSGSGTDFSLTISSVQAEDLAIYYCQNDYYYPFTFGSGTKLEIK
B8: hybridoma clone 2-D22-A (antibody, V domains shown)
VH: B2 VH with V24A, Y35H, V48I, T57S, N77K, M83T, S117T
VL: B1 VL with K36R, T40A, I59T, A61E, L91V, L95Q, F100Y
B9: hybridoma clone 9-M7-A (antibody, V domains shown)
VH: EVQLVESGGALVKPGGSLKLSCAASGFTFSNYAMSWIRQTPEKRLEWVATIIIGGTYTYYPDSVKGRFTISRDNAKNTLYLQMSSLRSEDTALYYCARQVYGNSFAYWGQGTLVTVSA
VL: B7 VL with T22S, I28S, S78T, I91V, D97N, Y99I
B10: hybridoma clone 9-A13-B (antibody, V domains shown)
VH: B2 VH with V24A, T28S, Y35H, Y50H, V64M, M70I, I99F, A104T
VL: B1 VL with I59T, A61E, A90T, L91V, L95Q, D97G, F100Y
B11: hybridoma clone 9-N14-A (antibody, V domains shown)
VH: B2 VH with V24A, V48L, S56N, T57N, M70I, T115I
VL: B1 VL with I59T, A61E, L91V, L95Q, S99I, F100Y, E111G
B12: hybridoma clone 5-J22-A (antibody, V domains shown)
VH: B2 VH with V24A, Y35H, Y50H, S56N, T57I, Y59H, V64L, M70I, I99F, A104T
VL: B1 VL with I59T, A61E, A90T, L91V, L95Q, D97A
B13: hybridoma clone 7-A21-A (antibody, V domains shown)
VH: B2 VH with V24A, V48L, S56N, M70I
VL: B1 VL with I59T, A61E, L91V, L95Q, S99I, F100Y, E111G
B14: hybridoma clone 6-C5-A (antibody, V domains shown)
VH: B2 VH with V24A, Y35H, V64M, M70I, A97T, I99F, A104T
VL: B1 VL with K36R, Q44R, I59T, A61E, A90T, L91F, L95Q, D97G, F100Y
B15: hybridoma clone 10-K12-A (antibody, V domains shown)
VH: B2 VH with V24A, Y35F, A49G, T57N, M70I
VL: B1 VL with I59T, A61E, L91I, L95Q, S99F, F100Y
B16: hybridoma clone 7-B15-A (antibody, V domains shown)
VH: B2 VH with V24A, Y35H, V48I, Y50H, V64M, M70I, I99F, A100V, M105L
VL: B1 VL with S22N, I59T, A61E, A90T, L91V, L95Q, D97G, F100Y
B17: hybridoma clone 1-M5-A (antibody, V domains shown)
VH: B9 VH with P14S, K19R, Y32N, L93F, T115S
VL: B7 VL with T22S, I28S, S78T, I91V, D97N, Y99F
B18: hybridoma clone 9-B11-A (antibody, V domains shown)
VH: B2 VH with V24A, Y35H, T57P, M70I, I99F
VL: B1 VL with I59T, A61D, L91V, L95Q, D97N, S99Y, F100Y, K109N
B19: hybridoma clone 4-N1-A (antibody, V domains shown)
VH: B2 VH with E6N, V24A, Y35H, V64M, M70I, I99F, A100V, A104S
VL: B1 VL with I59T, A61E, A90T, L91V, L95Q, D97A, F100Y
B20: hybridoma clone 7-E20-A (antibody, V domains shown)
VH: B2 VH with V24A, Y35H, Y59H, A61V, V64M, M70I, I99F, A104T, M105L
VL: B1 VL with L30F, S32T, I59T, A61E, A90T, L91V, L95Q, D97G, F100Y
B21: hybridoma clone 9-C6-A (antibody, V domains shown)
VH: B2 VH with V24A, Y35H, V64M, M70I, I99F, A100V, A104S
VL: B1 VL with M21L, G47R, I59T, A61E, S83N, A90T, L91V, L95Q, D97A, F100Y
B22: hybridoma clone 10-L9-A (antibody, V domains shown)
VH: B2 VH with V24A, Y35H, V48I, S52N, M70I, Y94F, I99F, A104V, M105L
VL: DIVMTQSPSSLTVTAGEKVTMSCRSSQSLLNSGNQRNYLTWYQQKPGHPPKLLIYWASTRESGVPDRFTGSGSGTDFTLTISGVQAEDLAVYYCQNGYSYPLTFGAGTKLEVK
B23: hybridoma 1-B13-A (antibody, V domains shown)
VH: B7 VH with S31V, I34M, E46Q, R54K, D56G, I58T, S117P
VL: B7 VL with S10P, V19A, T22S, I28S, K36R, I91V, Y98F, Y99I

The binders below were run against T1, claudin 18.1 (CLDN18.1) (human, UniProt P56856 1-261) (assay: in-cell ELISA, hybridoma supernatant on HEK293-CLDN18.1 cells).
T1 construct: also called HEK293-CLDN18.1
T1 sequence (P56856 whole entry): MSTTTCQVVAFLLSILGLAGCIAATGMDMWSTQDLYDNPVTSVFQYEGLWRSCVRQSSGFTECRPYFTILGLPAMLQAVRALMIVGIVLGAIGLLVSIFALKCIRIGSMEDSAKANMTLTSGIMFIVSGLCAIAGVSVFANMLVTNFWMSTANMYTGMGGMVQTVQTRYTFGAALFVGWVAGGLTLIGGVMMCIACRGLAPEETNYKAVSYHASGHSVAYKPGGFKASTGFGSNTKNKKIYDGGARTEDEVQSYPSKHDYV
Procedure: (§1) In-cell ELISAs were performed as follows: 5×10³ HEK293-CLDN18.2 cells were seeded per well in a poly-L-lysine-coated 96-well plate. The plates were then incubated at 37° C. with 5% CO₂ for 2 days. Following incubation, culture media was removed from each well, and the HEK293-CLDN18.2 cells were blocked with 200 μl blocking buffer (3% BSA/PBS (pH 7.4)) per well for 1 hour at room temperature. Each hybridoma supernatant was incubated with cells at room temperature for 1 hour. Cells were gently washed 3 times with 200 μl PBS (pH 7.4) containing 1 mM Ca²⁺ and 0.5 mM Mg²⁺. Next, cells were incubated with 100 μl of HRP-conjugated goat anti-human IgG (H+L) antibody for 1 hour at room temperature. Following the incubation, the cells were washed three times with 200 μl PBS (pH 7.4) containing 1 mM Ca²⁺ and 0.5 mM Mg²⁺. 100 μl of 1-Step™ Ultra TMB-ELISA Substrate was added to each well, and the reactions were stopped by addition of 50 μl of stop solution. OD₄₅₀ was measured using CLARIOStar microplate reader. The in-cell ELISAs were repeated for each clone using HEK293-CLDN18.1 cells.

Row | Binder | OD450/µg IgG
1 | B1 | 139 OD450/µg IgG
2 | B2 | 6.7 OD450/µg IgG
3 | B3 | 1.55 OD450/µg IgG
4 | B4 | 13.3 OD450/µg IgG
5 | B5 | 0.34 OD450/µg IgG
6 | B6 | 4.3 OD450/µg IgG
7 | B7 | 3.05 OD450/µg IgG
8 | B8 | 2.22 OD450/µg IgG
9 | B9 | 0.79 OD450/µg IgG
10 | B10 | 3.34 OD450/µg IgG
11 | B11 | 3.14 OD450/µg IgG
12 | B12 | 2.16 OD450/µg IgG
13 | B13 | 2.51 OD450/µg IgG
14 | B14 | 1.04 OD450/µg IgG
15 | B15 | 2.11 OD450/µg IgG
16 | B16 | 1.32 OD450/µg IgG
17 | B17 | 1.11 OD450/µg IgG
18 | B18 | 2.18 OD450/µg IgG
19 | B19 | 2.87 OD450/µg IgG
20 | B20 | 2.23 OD450/µg IgG
21 | B21 | 3.82 OD450/µg IgG

What follows are binders tested against T2, claudin 18.2 (CLDN18.2) (human) (assay: in-cell ELISA, hybridoma supernatant on HEK293-CLDN18.2 cells).
T2 construct: also called Claudin 18 isotype 2; HEK293-CLDN18.2
Procedure: as §1

Row | Binder | OD450/µg IgG
22 | B22 | 9.52 OD450/µg IgG
23 | B1 | 88.2 OD450/µg IgG
24 | B2 | 30.8 OD450/µg IgG
25 | B3 | 11.4 OD450/µg IgG
26 | B4 | 6.49 OD450/µg IgG
27 | B5 | 4.71 OD450/µg IgG
28 | B6 | 29.4 OD450/µg IgG
29 | B7 | 102 OD450/µg IgG
30 | B8 | 16.8 OD450/µg IgG
31 | B9 | 19.2 OD450/µg IgG
32 | B10 | 48.6 OD450/µg IgG
33 | B11 | 34.4 OD450/µg IgG
34 | B12 | 15.4 OD450/µg IgG
35 | B13 | 18.4 OD450/µg IgG
36 | B14 | 12.2 OD450/µg IgG
37 | B15 | 12.9 OD450/µg IgG
38 | B16 | 13.2 OD450/µg IgG
39 | B17 | 21.1 OD450/µg IgG
40 | B18 | 25.9 OD450/µg IgG
41 | B19 | 18 OD450/µg IgG
42 | B20 | 20.4 OD450/µg IgG
43 | B21 | 28.3 OD450/µg IgG

The binders below were run against T1, claudin 18.1 (CLDN18.1) (assay: FACS, hybridoma supernatant on HEK293-CLDN18.1).
Source text: (§2) Ten days after fusion, hybridoma supernatants were screened by FACS against HEK293-CLDN18.2, HEK293-CLDN18.1 and HEK293.

Row | Binder | MFI
44 | B1 | 126000
45 | B2 | 12900
46 | B3 | 8970
47 | B4 | 232000
48 | B5 | 10900
49 | B6 | 20100
50 | B7 | 20400
51 | B8 | 6310
52 | B23 | 10200
53 | B9 | 7740
54 | B10 | 6930
55 | B11 | 10600
56 | B12 | 6390
57 | B13 | 6450
58 | B14 | 8130
59 | B15 | 7910
60 | B16 | 11200
61 | B17 | 7950
62 | B18 | 7630
63 | B19 | 12100
64 | B20 | 7460
65 | B21 | 9700

What follows are binders tested against T2, claudin 18.2 (CLDN18.2) (assay: FACS, hybridoma supernatant on HEK293-CLDN18.2;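 also: flow cytometry of hybridoma supernatants taken 10 days after fusion, applied to HEK293 cells stably expressing CLDN18.2, with MFI standing for mean fluorescence intensity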).
Source text: as §2

Row | Binder | MFI
66 | B22 | 127000
67 | B1 | 70800
68 | B2 | 136000
69 | B3 | 60500
70 | B4 | 138000
71 | B5 | 58900
72 | B6 | 131000
73 | B7 | 136000
74 | B8 | 58300
75 | B23 | 61900
76 | B9 | 70300
77 | B10 | 61400
78 | B11 | 64000
79 | B12 | 46100
80 | B13 | 47000
81 | B14 | 94700
82 | B15 | 48900
83 | B16 | 105000
84 | B17 | 59200
85 | B18 | 54100
86 | B19 | 80100
87 | B20 | 72600
88 | B21 | 52400
